How the values were obtained:
Assay in all cases: EMSA; no nucleotide; apparent; 20 mM HEPES-NaOH pH 7.5 (Results say pH 7.2), 135 mM NaCl, 5% glycerol, 1 mM DTT, 1 mg/ml BSA, 20 min at 20 C; 0.4 nM T(35); G4 assay: 0.1 nM G4 DNA, 2% PEG 8000 instead of glycerol, 5 uM T(35) competitor
Settings in all cases: protein: recombinant; tags: His tag removed, GSRM left; label: 5' 32P (PNK)
[1] = target: T1, hPIF1HD E307Q (human, UniProt Q9H611 206-620, E307Q)
T1 sequence: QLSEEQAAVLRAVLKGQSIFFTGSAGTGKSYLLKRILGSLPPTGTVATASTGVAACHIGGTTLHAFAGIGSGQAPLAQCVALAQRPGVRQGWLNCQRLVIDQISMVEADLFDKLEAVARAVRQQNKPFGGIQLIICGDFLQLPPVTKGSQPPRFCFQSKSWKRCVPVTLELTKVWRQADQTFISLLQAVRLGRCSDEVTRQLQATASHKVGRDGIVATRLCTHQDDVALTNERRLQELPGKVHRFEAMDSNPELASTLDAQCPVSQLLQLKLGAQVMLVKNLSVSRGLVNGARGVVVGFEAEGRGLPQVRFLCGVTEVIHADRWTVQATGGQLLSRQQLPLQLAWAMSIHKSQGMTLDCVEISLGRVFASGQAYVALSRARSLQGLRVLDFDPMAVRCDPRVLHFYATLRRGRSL

[2] = target: T2, hPIF1HD K414A (human, UniProt Q9H611 206-620, K414A)
T2 sequence: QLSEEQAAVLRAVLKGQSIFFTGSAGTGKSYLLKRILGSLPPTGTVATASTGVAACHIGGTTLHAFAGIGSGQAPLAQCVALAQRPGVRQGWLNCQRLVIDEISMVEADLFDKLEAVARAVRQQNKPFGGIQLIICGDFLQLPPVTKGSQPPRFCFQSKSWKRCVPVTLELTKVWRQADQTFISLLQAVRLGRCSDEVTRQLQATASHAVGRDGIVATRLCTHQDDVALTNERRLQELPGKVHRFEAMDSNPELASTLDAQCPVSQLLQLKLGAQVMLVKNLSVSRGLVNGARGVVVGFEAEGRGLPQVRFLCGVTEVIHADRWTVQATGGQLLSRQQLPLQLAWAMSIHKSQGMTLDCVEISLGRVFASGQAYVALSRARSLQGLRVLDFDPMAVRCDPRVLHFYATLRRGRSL

[3] = target: T3, hPIF1HD P291A (human, UniProt Q9H611 206-620, P291A)
T3 sequence: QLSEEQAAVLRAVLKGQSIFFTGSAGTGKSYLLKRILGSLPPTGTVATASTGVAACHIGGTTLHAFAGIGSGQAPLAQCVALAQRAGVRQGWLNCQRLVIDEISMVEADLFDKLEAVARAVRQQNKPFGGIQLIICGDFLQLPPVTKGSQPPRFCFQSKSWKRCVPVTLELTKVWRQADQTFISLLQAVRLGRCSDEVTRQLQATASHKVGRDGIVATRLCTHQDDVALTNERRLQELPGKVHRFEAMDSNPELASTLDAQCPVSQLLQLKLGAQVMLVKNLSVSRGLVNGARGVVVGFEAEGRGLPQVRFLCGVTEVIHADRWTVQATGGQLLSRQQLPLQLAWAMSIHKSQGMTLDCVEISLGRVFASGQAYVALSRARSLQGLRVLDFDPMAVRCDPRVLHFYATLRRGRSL

[4] = target: T4, hPIF1HD R294A (human, UniProt Q9H611 206-620, R294A)
T4 sequence: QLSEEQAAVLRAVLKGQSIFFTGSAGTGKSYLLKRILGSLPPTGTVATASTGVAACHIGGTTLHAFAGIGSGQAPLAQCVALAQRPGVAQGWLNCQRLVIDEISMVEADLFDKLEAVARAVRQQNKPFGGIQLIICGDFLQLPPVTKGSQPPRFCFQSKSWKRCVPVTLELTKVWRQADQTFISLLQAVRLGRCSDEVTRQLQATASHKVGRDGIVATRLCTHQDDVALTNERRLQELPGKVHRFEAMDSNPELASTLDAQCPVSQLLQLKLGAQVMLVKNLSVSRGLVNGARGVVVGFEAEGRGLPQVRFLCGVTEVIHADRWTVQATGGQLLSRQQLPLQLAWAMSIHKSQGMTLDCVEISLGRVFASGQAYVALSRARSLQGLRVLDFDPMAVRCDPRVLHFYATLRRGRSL

TTTTTTTTTTTTTTTTTTTTTTTTTTTTTTTTTTT (ssDNA) [poly-T(35)] was tested, and the Kd [1] was 3.6 ± 0.5 nM, the Kd [2] was 1.6 ± 0.4 nM and the Kd [3] was 1.9 ± 0.6 nM. It also gave a Kd [4] of 5.7 ± 1.6 nM.
